Source: patent US20120020912A1 (WISCONSIN ALUMNI RESEARCH FOUNDATION, published 2012)

B1: AR708 peptide (peptide)
peptide: LGERQLVHVV
notes: Synthetic 10-mer derived from the AR LBD

Target: T1, HLA-A2 on T2 cells (human)
T1 construct: whole, on cells; MHC class I molecule on T2 cells
Experiment: T2 binding assay: T2 cells pulsed with 50 ug/mL peptide overnight, surface HLA-A2 by flow cytometry (BB7.2)

Row | In Vitro HLA-A2 Expression (Relative Mean Flourescent Intensity) | Binder
1 | 2.15 ratio to unloaded T2 cells | RMLYFAPDLV (Synthetic 10-mer) [AR761 peptide]
2 | 2.19 ratio to unloaded T2 cells | FLCMKALLL (Synthetic 9-mer) [AR805 peptide]
3 | 1.16 ratio to unloaded T2 cells | B1
4 | 1.37 ratio to unloaded T2 cells | VLEAIEPGV (Synthetic 9-mer derived from the AR LBD) [AR677 peptide]
5 | 2.66 ratio to unloaded T2 cells | ALLSSLNEL (Synthetic 9-mer derived from the AR LBD) [AR700 peptide]
6 | 1.32 ratio to unloaded T2 cells | WMGLMVFAM (Synthetic 9-mer derived from the AR LBD) [AR742 peptide]
7 | 1.01 ratio to unloaded T2 cells | FSIIPVDGL (Synthetic 9-mer derived from the AR LBD) [AR814 peptide]
8 | 2.54 ratio to unloaded T2 cells | LLLFSIIPV (Synthetic 9-mer) [AR811 peptide]
9 | 1.33 ratio to unloaded T2 cells | QLTKLLDSV (Synthetic 9-mer) [AR859 peptide]
10 | 1.65 ratio to unloaded T2 cells | KLLDSVQPI (Synthetic 9-mer derived from the AR LBD) [AR862 peptide]
